The values below come from patent publication US20140087995A1 (published 2014).

Numbered stars: 1 amine (or outer) side, 2 acyl side, 3 side chain; on linkers, the order of the positions; unused ones are H or OH. Bridge positions count the residues as written; N and C are the ends. * marks the point of attachment. C20 diacid = O=C(O)CCCCCCCCCCCCCCCCCCC(=O)*; γGlu = O=C(O)[C@H](CCC(=O)[*:2])N[*:1]

T1: human amylin receptor (amylin 3(a) receptor: human calcitonin receptor with RAMP-3) (human, UniProt P30988 25-474; O60896 24-148)
T1 sequence (looked up) 1: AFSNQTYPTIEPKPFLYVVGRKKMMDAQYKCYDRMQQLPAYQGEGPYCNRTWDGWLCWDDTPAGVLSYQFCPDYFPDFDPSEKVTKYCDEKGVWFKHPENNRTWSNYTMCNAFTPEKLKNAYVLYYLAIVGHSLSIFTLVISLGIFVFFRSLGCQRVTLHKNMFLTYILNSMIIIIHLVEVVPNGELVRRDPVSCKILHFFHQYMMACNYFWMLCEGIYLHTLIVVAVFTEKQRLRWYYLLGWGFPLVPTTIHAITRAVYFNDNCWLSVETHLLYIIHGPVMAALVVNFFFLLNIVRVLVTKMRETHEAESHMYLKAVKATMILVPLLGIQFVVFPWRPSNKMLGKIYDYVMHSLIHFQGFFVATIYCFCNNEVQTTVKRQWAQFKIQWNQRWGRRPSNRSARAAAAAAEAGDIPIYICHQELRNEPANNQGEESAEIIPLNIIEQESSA
T1 sequence (looked up) 2: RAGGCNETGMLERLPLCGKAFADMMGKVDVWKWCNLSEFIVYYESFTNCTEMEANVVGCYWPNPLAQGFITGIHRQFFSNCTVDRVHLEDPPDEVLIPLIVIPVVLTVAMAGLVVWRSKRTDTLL

T2: human calcitonin receptor (human, UniProt P30988 25-474)
T2 sequence (looked up): T1 sequence (looked up) 1

B1: N^α1-[(4S)-4-carboxy-4-(19-carboxynonadecanoylamino)butanoyl]-[Arg17,Pro21,Pro27,Pro34,Glu35]-h-amylin (peptide)
peptide: {C20 diacid-γGlu}-KCNTATCATQRLANFLRHSSPNFGAIPSSTNVGPETY-NH2
modifications: disulfide 2-7
SMILES: CC[C@H](C)[C@H](NC(=O)[C@H](C)NC(=O)CNC(=O)[C@H](Cc1ccccc1)NC(=O)[C@H](CC(N)=O)NC(=O)[C@@H]1CCCN1C(=O)[C@H](CO)NC(=O)[C@H](CO)NC(=O)[C@H](Cc1c[nH]cn1)NC(=O)[C@H](CCCNC(=N)N)NC(=O)[C@H](CC(C)C)NC(=O)[C@H](Cc1ccccc1)NC(=O)[C@H](CC(N)=O)NC(=O)[C@H](C)NC(=O)[C@H](CC(C)C)NC(=O)[C@H](CCCNC(=N)N)NC(=O)[C@H](CCC(N)=O)NC(=O)[C@@H](NC(=O)[C@H](C)NC(=O)[C@@H]1CSSC[C@H](NC(=O)[C@H](CCCCN)NC(=O)CC[C@H](NC(=O)CCCCCCCCCCCCCCCCCCC(=O)O)C(=O)O)C(=O)N[C@@H](CC(N)=O)C(=O)N[C@@H]([C@@H](C)O)C(=O)N[C@@H](C)C(=O)N[C@@H]([C@@H](C)O)C(=O)N1)[C@@H](C)O)C(=O)N1CCC[C@H]1C(=O)N[C@@H](CO)C(=O)N[C@@H](CO)C(=O)N[C@H](C(=O)N[C@@H](CC(N)=O)C(=O)N[C@H](C(=O)NCC(=O)N1CCC[C@H]1C(=O)N[C@@H](CCC(=O)O)C(=O)N[C@H](C(=O)N[C@@H](Cc1ccc(O)cc1)C(N)=O)[C@@H](C)O)C(C)C)[C@@H](C)O
notes: also called compound 29
B2: N^α1-[(4S)-4-carboxy-4-(19-carboxynonadecanoylamino)butanoyl]-[Glu14,Arg17,Pro21,Pro27,His34]-h-amylin (peptide)
peptide: {C20 diacid-γGlu}-KCNTATCATQRLAEFLRHSSPNFGAIPSSTNVGHNTY-NH2
modifications: disulfide 2-7
SMILES: CC[C@H](C)[C@H](NC(=O)[C@H](C)NC(=O)CNC(=O)[C@H](Cc1ccccc1)NC(=O)[C@H](CC(N)=O)NC(=O)[C@@H]1CCCN1C(=O)[C@H](CO)NC(=O)[C@H](CO)NC(=O)[C@H](Cc1c[nH]cn1)NC(=O)[C@H](CCCNC(=N)N)NC(=O)[C@H](CC(C)C)NC(=O)[C@H](Cc1ccccc1)NC(=O)[C@H](CCC(=O)O)NC(=O)[C@H](C)NC(=O)[C@H](CC(C)C)NC(=O)[C@H](CCCNC(=N)N)NC(=O)[C@H](CCC(N)=O)NC(=O)[C@@H](NC(=O)[C@H](C)NC(=O)[C@@H]1CSSC[C@H](NC(=O)[C@H](CCCCN)NC(=O)CC[C@H](NC(=O)CCCCCCCCCCCCCCCCCCC(=O)O)C(=O)O)C(=O)N[C@@H](CC(N)=O)C(=O)N[C@@H]([C@@H](C)O)C(=O)N[C@@H](C)C(=O)N[C@@H]([C@@H](C)O)C(=O)N1)[C@@H](C)O)C(=O)N1CCC[C@H]1C(=O)N[C@@H](CO)C(=O)N[C@@H](CO)C(=O)N[C@H](C(=O)N[C@@H](CC(N)=O)C(=O)N[C@H](C(=O)NCC(=O)N[C@@H](Cc1c[nH]cn1)C(=O)N[C@@H](CC(N)=O)C(=O)N[C@H](C(=O)N[C@@H](Cc1ccc(O)cc1)C(N)=O)[C@@H](C)O)C(C)C)[C@@H](C)O
notes: also called compound 17
B3: N^α1-[(4S)-4-carboxy-4-(19-carboxynonadecanoylamino)butanoyl]-[Glu14,Arg17,Pro21,Pro27,Arg35]-h-amylin (peptide)
peptide: {C20 diacid-γGlu}-KCNTATCATQRLAEFLRHSSPNFGAIPSSTNVGSRTY-NH2
modifications: disulfide 2-7
SMILES: CC[C@H](C)[C@H](NC(=O)[C@H](C)NC(=O)CNC(=O)[C@H](Cc1ccccc1)NC(=O)[C@H](CC(N)=O)NC(=O)[C@@H]1CCCN1C(=O)[C@H](CO)NC(=O)[C@H](CO)NC(=O)[C@H](Cc1c[nH]cn1)NC(=O)[C@H](CCCNC(=N)N)NC(=O)[C@H](CC(C)C)NC(=O)[C@H](Cc1ccccc1)NC(=O)[C@H](CCC(=O)O)NC(=O)[C@H](C)NC(=O)[C@H](CC(C)C)NC(=O)[C@H](CCCNC(=N)N)NC(=O)[C@H](CCC(N)=O)NC(=O)[C@@H](NC(=O)[C@H](C)NC(=O)[C@@H]1CSSC[C@H](NC(=O)[C@H](CCCCN)NC(=O)CC[C@H](NC(=O)CCCCCCCCCCCCCCCCCCC(=O)O)C(=O)O)C(=O)N[C@@H](CC(N)=O)C(=O)N[C@@H]([C@@H](C)O)C(=O)N[C@@H](C)C(=O)N[C@@H]([C@@H](C)O)C(=O)N1)[C@@H](C)O)C(=O)N1CCC[C@H]1C(=O)N[C@@H](CO)C(=O)N[C@@H](CO)C(=O)N[C@H](C(=O)N[C@@H](CC(N)=O)C(=O)N[C@H](C(=O)NCC(=O)N[C@@H](CO)C(=O)N[C@@H](CCCNC(=N)N)C(=O)N[C@H](C(=O)N[C@@H](Cc1ccc(O)cc1)C(N)=O)[C@@H](C)O)C(C)C)[C@@H](C)O
notes: also called compound 16
B4: N^α1-[(4S)-4-carboxy-4-(19-carboxynonadecanoylamino)butanoyl]-[Glu14,Arg17,Pro21,Pro27,Asp35,Pro37]-h-amylin (peptide)
peptide: {C20 diacid-γGlu}-KCNTATCATQRLAEFLRHSSPNFGAIPSSTNVGSDTP-NH2
modifications: disulfide 2-7
SMILES: CC[C@H](C)[C@H](NC(=O)[C@H](C)NC(=O)CNC(=O)[C@H](Cc1ccccc1)NC(=O)[C@H](CC(N)=O)NC(=O)[C@@H]1CCCN1C(=O)[C@H](CO)NC(=O)[C@H](CO)NC(=O)[C@H](Cc1c[nH]cn1)NC(=O)[C@H](CCCNC(=N)N)NC(=O)[C@H](CC(C)C)NC(=O)[C@H](Cc1ccccc1)NC(=O)[C@H](CCC(=O)O)NC(=O)[C@H](C)NC(=O)[C@H](CC(C)C)NC(=O)[C@H](CCCNC(=N)N)NC(=O)[C@H](CCC(N)=O)NC(=O)[C@@H](NC(=O)[C@H](C)NC(=O)[C@@H]1CSSC[C@H](NC(=O)[C@H](CCCCN)NC(=O)CC[C@H](NC(=O)CCCCCCCCCCCCCCCCCCC(=O)O)C(=O)O)C(=O)N[C@@H](CC(N)=O)C(=O)N[C@@H]([C@@H](C)O)C(=O)N[C@@H](C)C(=O)N[C@@H]([C@@H](C)O)C(=O)N1)[C@@H](C)O)C(=O)N1CCC[C@H]1C(=O)N[C@@H](CO)C(=O)N[C@@H](CO)C(=O)N[C@H](C(=O)N[C@@H](CC(N)=O)C(=O)N[C@H](C(=O)NCC(=O)N[C@@H](CO)C(=O)N[C@@H](CC(=O)O)C(=O)N[C@H](C(=O)N1CCC[C@H]1C(N)=O)[C@@H](C)O)C(C)C)[C@@H](C)O
notes: also called compound 11
B5: N^α1-[(4S)-4-carboxy-4-(19-carboxynonadecanoylamino)butanoyl]-[Glu14,Arg17,Pro21,Pro27,His35]-h-amylin (peptide)
peptide: {C20 diacid-γGlu}-KCNTATCATQRLAEFLRHSSPNFGAIPSSTNVGSHTY-NH2
modifications: disulfide 2-7
SMILES: CC[C@H](C)[C@H](NC(=O)[C@H](C)NC(=O)CNC(=O)[C@H](Cc1ccccc1)NC(=O)[C@H](CC(N)=O)NC(=O)[C@@H]1CCCN1C(=O)[C@H](CO)NC(=O)[C@H](CO)NC(=O)[C@H](Cc1c[nH]cn1)NC(=O)[C@H](CCCNC(=N)N)NC(=O)[C@H](CC(C)C)NC(=O)[C@H](Cc1ccccc1)NC(=O)[C@H](CCC(=O)O)NC(=O)[C@H](C)NC(=O)[C@H](CC(C)C)NC(=O)[C@H](CCCNC(=N)N)NC(=O)[C@H](CCC(N)=O)NC(=O)[C@@H](NC(=O)[C@H](C)NC(=O)[C@@H]1CSSC[C@H](NC(=O)[C@H](CCCCN)NC(=O)CC[C@H](NC(=O)CCCCCCCCCCCCCCCCCCC(=O)O)C(=O)O)C(=O)N[C@@H](CC(N)=O)C(=O)N[C@@H]([C@@H](C)O)C(=O)N[C@@H](C)C(=O)N[C@@H]([C@@H](C)O)C(=O)N1)[C@@H](C)O)C(=O)N1CCC[C@H]1C(=O)N[C@@H](CO)C(=O)N[C@@H](CO)C(=O)N[C@H](C(=O)N[C@@H](CC(N)=O)C(=O)N[C@H](C(=O)NCC(=O)N[C@@H](CO)C(=O)N[C@@H](Cc1c[nH]cn1)C(=O)N[C@H](C(=O)N[C@@H](Cc1ccc(O)cc1)C(N)=O)[C@@H](C)O)C(C)C)[C@@H](C)O
notes: also called compound 18
B6: N^α1-[(4S)-4-carboxy-4-(19-carboxynonadecanoylamino)butanoyl]-[Asp14,Arg17,Pro21,Pro27,Pro37]-h-amylin (peptide)
peptide: {C20 diacid-γGlu}-KCNTATCATQRLADFLRHSSPNFGAIPSSTNVGSNTP-NH2
modifications: disulfide 2-7
SMILES: CC[C@H](C)[C@H](NC(=O)[C@H](C)NC(=O)CNC(=O)[C@H](Cc1ccccc1)NC(=O)[C@H](CC(N)=O)NC(=O)[C@@H]1CCCN1C(=O)[C@H](CO)NC(=O)[C@H](CO)NC(=O)[C@H](Cc1c[nH]cn1)NC(=O)[C@H](CCCNC(=N)N)NC(=O)[C@H](CC(C)C)NC(=O)[C@H](Cc1ccccc1)NC(=O)[C@H](CC(=O)O)NC(=O)[C@H](C)NC(=O)[C@H](CC(C)C)NC(=O)[C@H](CCCNC(=N)N)NC(=O)[C@H](CCC(N)=O)NC(=O)[C@@H](NC(=O)[C@H](C)NC(=O)[C@@H]1CSSC[C@H](NC(=O)[C@H](CCCCN)NC(=O)CC[C@H](NC(=O)CCCCCCCCCCCCCCCCCCC(=O)O)C(=O)O)C(=O)N[C@@H](CC(N)=O)C(=O)N[C@@H]([C@@H](C)O)C(=O)N[C@@H](C)C(=O)N[C@@H]([C@@H](C)O)C(=O)N1)[C@@H](C)O)C(=O)N1CCC[C@H]1C(=O)N[C@@H](CO)C(=O)N[C@@H](CO)C(=O)N[C@H](C(=O)N[C@@H](CC(N)=O)C(=O)N[C@H](C(=O)NCC(=O)N[C@@H](CO)C(=O)N[C@@H](CC(N)=O)C(=O)N[C@H](C(=O)N1CCC[C@H]1C(N)=O)[C@@H](C)O)C(C)C)[C@@H](C)O
notes: also called compound 10

The target in the first experiment is T1, human amylin receptor (amylin 3(a) …). Briefly: cell-based or functional assay.
As for B1, the “hAmylin-R funct. EC50” value was determined as 0.099 nM.

On to B2, for which the “hAmylin-R funct. EC50” value is 0.268 nM.

On to B3, for which the “hAmylin-R funct. EC50” value was 0.363 nM.

Turning to B4, the “hAmylin-R funct. EC50” value was 0.12 nM.

B5: the “hAmylin-R funct. EC50” value was 0.154 nM.

As for B6, the “hAmylin-R funct. EC50” value came out at 0.072 nM.

Another experiment deals with T2, human calcitonin receptor. The experiment can be described thus: cell-based or functional assay.
Consider B1, for which the “Ratio hCT/hAmylin funct.” value is 8.7 and the “hCTR funct. EC50” value worked out at 0.857 nM.

For B2, the “Ratio hCT/hAmylin funct.” value turned out to be 8.8.

For B3, the “Ratio hCT/hAmylin funct.” value was determined as 6.1 and the “hCTR funct. EC50” value is 2.21 nM.

Turning to B4, the “Ratio hCT/hAmylin funct.” value was found to be 0.9 and the “hCTR funct. EC50” value amounted to 0.112 nM.

As to B5, the “Ratio hCT/hAmylin funct.” value came out at 4.8 and the “hCTR funct. EC50” value was 0.742 nM.

As for B6, the “Ratio hCT/hAmylin funct.” value turned out to be 1 and the “hCTR funct. EC50” value was found to be 0.07 nM.
